# Assays:
# [1] = target: human 4-1BB full length, on the cell surface (human) (UniProt Q07011); assay: FACS competition, CHO-K1-hu4-1BB; labelled Bio-4-1BBL 2 µg/ml fixed, competitor varied
# [2] = target: human 4-1BB full length, on the cell surface (human) (UniProt Q07011); assay: FACS competition, CHO-K1-hu4-1BB; labelled Bio-Hanke10F4 1.5 µg/ml fixed, competitor varied
# [3] = target: Human 4-1BB + Mouse 4-1BB domain1,2A,2B(aa24-86) (human; mouse); assay: FACS, transiently transfected Expi293 cells (cell A)
# [4] = target: Human 4-1BB + Mouse 4-1BB domain3A,3B,4A(aa87-133) (human; mouse) (UniProt Q07011); assay: FACS, transiently transfected Expi293 cells (cell C)
# [5] = target: h4-1BB-His antigen (Acro company, product number: Q07011-1) (human) (UniProt Q07011); assay: BLI (Fortebio), h4-1BB-His
# [6] = target: Human 4-1BB + Mouse 4-1BB domain2B,3A,3B(aa64-118) (human; mouse) (UniProt Q07011); assay: FACS, transiently transfected Expi293 cells (cell B)
# [7] = target: Human 4-1BB + Mouse 4-1BB domain1,4B,NF(aa24-46,aa139-186) (human; mouse); assay: FACS, transiently transfected Expi293 cells (cell F)
# [8] = target: Human 4-1BB + Mouse 4-1BB domain3B,4A,4B(aa97-159) (human; mouse) (UniProt Q07011); assay: FACS, transiently transfected Expi293 cells (cell D)
# [9] = target: human 4-1BB full length, on the cell surface (human) (UniProt Q07011); assay: FACS, transiently transfected Expi293 cells (WT)
# [10] = target: Human 4-1BB + Mouse 4-1BB domain4A,4B,NF(aa119-186) (human; mouse); assay: FACS, transiently transfected Expi293 cells (cell E)
# Sequence of Human 4-1BB + Mouse 4-1BB domain4A,4B,NF(aa119-186) (human; mouse) (chain, as listed by the source): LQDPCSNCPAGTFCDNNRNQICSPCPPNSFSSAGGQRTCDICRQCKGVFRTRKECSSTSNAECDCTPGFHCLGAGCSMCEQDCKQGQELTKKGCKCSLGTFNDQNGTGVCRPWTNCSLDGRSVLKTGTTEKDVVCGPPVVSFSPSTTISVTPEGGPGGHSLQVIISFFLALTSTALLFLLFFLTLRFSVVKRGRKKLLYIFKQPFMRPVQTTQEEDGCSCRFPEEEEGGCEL
# Sequence of human 4-1BB full length, on the cell surface (human) (Q07011 24-255 limits assumed): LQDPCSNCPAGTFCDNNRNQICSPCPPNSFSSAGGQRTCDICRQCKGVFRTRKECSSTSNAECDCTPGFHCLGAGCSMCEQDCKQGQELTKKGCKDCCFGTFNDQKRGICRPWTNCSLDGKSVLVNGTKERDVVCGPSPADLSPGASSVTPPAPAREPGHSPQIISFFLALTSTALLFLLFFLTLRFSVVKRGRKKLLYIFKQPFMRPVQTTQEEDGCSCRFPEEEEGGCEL
# Sequence of Urelumab (antibody) (VH): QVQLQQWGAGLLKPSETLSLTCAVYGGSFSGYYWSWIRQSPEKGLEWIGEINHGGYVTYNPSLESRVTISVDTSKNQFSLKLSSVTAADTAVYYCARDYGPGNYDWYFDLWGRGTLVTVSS
# Sequence of Urelumab (antibody) (VL): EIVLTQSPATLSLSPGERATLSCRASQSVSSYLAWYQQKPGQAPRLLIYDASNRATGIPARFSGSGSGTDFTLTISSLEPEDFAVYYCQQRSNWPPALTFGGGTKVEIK
# Sequence of human 4-1BBL-hIgG (Fc fusion) (chain, part): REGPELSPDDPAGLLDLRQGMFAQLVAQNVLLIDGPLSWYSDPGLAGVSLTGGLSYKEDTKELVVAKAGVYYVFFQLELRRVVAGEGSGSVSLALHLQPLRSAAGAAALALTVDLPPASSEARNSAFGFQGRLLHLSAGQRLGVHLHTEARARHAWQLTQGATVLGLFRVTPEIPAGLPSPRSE
# Sequence of Human 4-1BB + Mouse 4-1BB domain1,2A,2B(aa24-86) (human; mouse) (chain, as listed by the source): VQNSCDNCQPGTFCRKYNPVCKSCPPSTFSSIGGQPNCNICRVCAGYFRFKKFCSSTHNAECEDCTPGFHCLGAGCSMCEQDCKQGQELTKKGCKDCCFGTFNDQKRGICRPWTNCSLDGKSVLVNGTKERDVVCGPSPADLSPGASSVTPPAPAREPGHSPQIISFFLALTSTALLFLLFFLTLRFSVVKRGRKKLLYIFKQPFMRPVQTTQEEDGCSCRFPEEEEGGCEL
# Sequence of Human 4-1BB + Mouse 4-1BB domain3A,3B,4A(aa87-133) (human; mouse) (Q07011 other isoform, or with tags, fused parts or gaps): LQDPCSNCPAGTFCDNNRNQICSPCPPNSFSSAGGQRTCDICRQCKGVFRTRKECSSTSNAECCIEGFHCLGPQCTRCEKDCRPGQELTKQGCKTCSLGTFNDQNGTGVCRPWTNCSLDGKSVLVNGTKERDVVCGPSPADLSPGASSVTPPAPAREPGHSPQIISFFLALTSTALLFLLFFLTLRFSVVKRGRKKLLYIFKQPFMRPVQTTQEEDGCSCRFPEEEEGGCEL
# Sequence of h4-1BB-His antigen (Acro company, product number: Q07011-1) (human) (Q07011 24-186): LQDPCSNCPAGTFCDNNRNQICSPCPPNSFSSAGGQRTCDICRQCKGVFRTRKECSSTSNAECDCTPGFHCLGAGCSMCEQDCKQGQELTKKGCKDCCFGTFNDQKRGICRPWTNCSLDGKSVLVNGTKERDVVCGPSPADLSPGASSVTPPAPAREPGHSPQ
# Sequence of Human 4-1BB + Mouse 4-1BB domain1,4B,NF(aa24-46,aa139-186) (human; mouse) (chain, as listed by the source): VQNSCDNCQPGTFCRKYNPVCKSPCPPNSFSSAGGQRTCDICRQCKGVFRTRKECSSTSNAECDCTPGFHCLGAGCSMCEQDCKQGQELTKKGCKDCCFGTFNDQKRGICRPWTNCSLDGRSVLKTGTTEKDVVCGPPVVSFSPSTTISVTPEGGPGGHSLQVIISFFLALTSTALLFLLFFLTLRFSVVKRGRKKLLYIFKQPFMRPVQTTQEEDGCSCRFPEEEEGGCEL
# Sequence of Human 4-1BB + Mouse 4-1BB domain2B,3A,3B(aa64-118) (human; mouse) (Q07011 other isoform, or with tags, fused parts or gaps): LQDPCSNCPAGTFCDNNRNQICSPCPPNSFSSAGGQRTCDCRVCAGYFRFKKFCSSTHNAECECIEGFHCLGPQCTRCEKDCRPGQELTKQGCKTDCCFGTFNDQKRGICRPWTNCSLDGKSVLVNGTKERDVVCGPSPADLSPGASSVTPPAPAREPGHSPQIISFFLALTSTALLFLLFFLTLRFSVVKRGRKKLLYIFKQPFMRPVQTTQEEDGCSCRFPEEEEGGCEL
# Sequence of Human 4-1BB + Mouse 4-1BB domain3B,4A,4B(aa97-159) (human; mouse) (Q07011 other isoform, or with tags, fused parts or gaps): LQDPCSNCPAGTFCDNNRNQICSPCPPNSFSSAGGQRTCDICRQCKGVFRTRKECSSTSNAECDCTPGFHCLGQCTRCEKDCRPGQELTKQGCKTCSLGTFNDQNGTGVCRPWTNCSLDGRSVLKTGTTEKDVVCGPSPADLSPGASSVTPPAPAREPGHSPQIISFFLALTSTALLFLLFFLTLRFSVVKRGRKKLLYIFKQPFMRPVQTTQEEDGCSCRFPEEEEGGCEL
substance,measurement,setting,value
human 4-1BBL-hIgG (Fc fusion),FACS signal of Bio-4-1BBL at (B:A) Ratio 0.03906,[1],7740
same,FACS signal of Bio-4-1BBL at (B:A) Ratio 0.15625,[1],7910
same,FACS signal of Bio-4-1BBL at (B:A) Ratio 0.625,[1],6850
same,FACS signal of Bio-4-1BBL at (B:A) Ratio 2.5,[1],6320
same,FACS signal of Bio-4-1BBL at (B:A) Ratio 10,[1],3770
same,FACS signal of Bio-4-1BBL at (B:A) Ratio 40,[1],3220
same,FACS signal of Bio-Hanke10F4 at (B:A) Ratio 0.058593,[2],6310
same,FACS signal of Bio-Hanke10F4 at (B:A) Ratio 0.23437,[2],6580
same,FACS signal of Bio-Hanke10F4 at (B:A) Ratio 0.9375,[2],4860
same,FACS signal of Bio-Hanke10F4 at (B:A) Ratio 3.75,[2],2290
same,FACS signal of Bio-Hanke10F4 at (B:A) Ratio 15,[2],584
same,FACS signal of Bio-Hanke10F4 at (B:A) Ratio 60,[2],254
Utomilumab (antibody),Mean fluorescence intensity,[3],19000
Urelumab (antibody),Mean fluorescence intensity,[4],193000
same,Kd,[5],5.76 nM
same,Mean fluorescence intensity,[6],313000
same,Mean fluorescence intensity,[3],1820
same,Mean fluorescence intensity,[7],4910
same,Mean fluorescence intensity,[8],123000
same,Mean fluorescence intensity,[9],146000
same,Mean fluorescence intensity,[10],194000
